Assay results taken from PMC7471176.

Key:
[1] = molecular target: Casein (Hammerstein casein)
[2] = molecular target: Casein (Hammerstein casein); remark: listed apart in the source

KP-43 Y195Q (Tyr195Gln) variant (enzyme)
specific caseinolytic activity at pH 10, against that of the Y195W variant [1]: 4.4 fold

KP-43 alkaline serine protease, wild type (enzyme)
specific caseinolytic activity at pH 7, against that at pH 10 (series pH 6 to 10) [2]: 90%

KP-43 Y195I (Tyr195Ile) variant (enzyme)
specific caseinolytic activity at pH 6, against that of the Y195R variant [1]: 1.8 fold
